Results taken from the Human Domainome abundance scans (Beltran et al. 2025).

B1: Zinc finger homeobox protein 3, residues 2643 to 2698; numbered along this chain, Q15911 (parent)
chain: RLRTTITPEQLEILYQKYLLDSNPTRKMLDHIAHEVGLKKRVVQVWFQNTRARERK

Variants of: B1
Test: abundance fitness (aPCA) (normalised: wild type 0, dead -1); higher = more abundant; growth selection in yeast, the domain comes from the species named
Conditions: Homo sapiens

Abundance fitness: each site, then its substitutions
P24: N -0.623, V -0.785, R -0.828, Y -0.548, G -0.857, K -0.935, T -0.957, W -0.165, L -0.79, H -0.687, D -0.634, E -0.78, Q -0.354, A -0.82, C -0.96, S -0.764, I -0.747, F -0.644, M -0.777
I13: P -0.951, N -0.287, Y 0.012, K -0.096, M -0.253, S -0.184, F 0.119, Q -0.095, V 0.057, G -0.24, W -0.172, L -0.084, C -0.058, H 0.067, A -0.079, T -0.01, R -0.123, E -0.339
P8: Y 0.116, Q -0.401, N -0.06, I 0.993, S -0.09, R 0.196, T -0.116, L 0.991, W 0.193, K -0.352, M 0.57, V 0.544
Y18: T -1.03, P -0.847, D -0.96, K -0.662, M -0.373, Q -0.698, E -0.948, H -1.03, F 0.251, C -0.696, G -0.899, R -0.865, N -0.705, L -0.552, V -0.644, W -0.401, I -0.62
N23: T -0.379, L -0.389, R -0.118, P -0.965, W -0.155, V -0.37, Q 0.066, K -0.335, G -0.276, C -0.594, H -0.354, Y -0.1, I -0.414, F 0.149, S -0.113, A -0.23, D -0.336
L20: E -0.079, V 0.002, Q 0.109, F -0.111, C -0.022, H -0.286, A -0.211, P -1.08, G -0.049, K -0.147, R -0.331, M 0.093, N -0.27, Y -0.466, D -0.226, T -0.057, I -0.056, W -0.227
L19: F -0.36, V -0.12, R -0.087, G -0.175, P -0.535, W -0.365, N -0.422, A -0.075, Q -0.233, K -0.022, C -0.032, S -0.154, H -0.14, M 0.039, I -0.583, Y -0.339, E -0.254, D -0.211
T25: C -0.191, L -0.552, S -0.267, W -0.951, P -0.145, H -0.448, D 0.189, F -0.605, V -0.349, G -0.394, M -0.256, A -0.243, Q -0.505, K -0.506, R -0.753, E -0.081, Y -0.908, N -0.206, I -0.502
D21: F -0.373, Y -0.675, E -0.008, C -0.426, M -0.22, K -0.924, G -0.321, Q -0.255, L -0.553, W -0.741, V -0.407, S -0.417, R -0.803, I -0.533, P -0.604
Q16: D -0.246, R -0.174, M 0.225, F 0.042, I -0.073, K -0.106, H -0.267, Y -0.436, A 0.052, N -0.226, T -0.021, S -0.213, L 0.572, G -0.113, V 0.357, W -0.615, P -1.08
E9: Q -0.038, Y -0.286, S -0.267, R -0.277, M -0.272, V -0.246, G -0.234, F -0.495, D -0.042, P -0.293, N -0.218, T -0.211, C -0.712, I -0.241, L -0.31, W -0.516, H -0.229
L11: V -0.021, G -0.02, Y -0.024, R 0.049, F -0.341, I -0.224, D 0.17, Q -0.133, K -0.143, M -0.032, H 0.028, P -0.494, E 0.026, N 0.305, S 0.022, W -0.11, C -0.648, T -0.117
K27: M -0.177, G 0.077, D 0.229, N -0.246, C -0.342, T 0.036, R -0.444, E 0.243, I -0.028, F -0.293, P 0.16, A 0.018
Q10: I -0.27, W -0.856, G -0.854, T -0.296, N -0.385, D 0.224, E -0.516, Y -0.792, S -0.48, R -0.755, K -0.432, L -0.646, C -0.52, P -0.717, V -0.321, A -0.212, F -0.959, H -0.356, M -0.411
L14: R -0.847, V -0.926, P -0.879, G -0.956, S -0.763, W -0.758, I -0.951, C -0.886, H -0.793, M -0.17, Q -0.895, A -0.908, N -1.14, D -0.568, E -0.791, T -1.04, K -0.899
R26: W 0.401, A 0.434, F 0.029, H 0.324, E 0.419, G 0.386, I 0.323, K 0.123, D 0.458, S 0.428, N 0.339, P 0.35, Y -0.031, C 0.306, V 0.383, L 0.266
Y15: T -0.007, S 0.138, W 0.072, K 0.051, V -0.123, H -0.152, C -0.368, A -0.202, R 0.032, Q 0.244, L 0.016, G 0.126, I 0.183, F -0.444, M -0.049
S22: L -0.643, H -0.24, W -0.491, D 0.075, C -0.136, R -0.526, I -0.589, V -0.395, A -0.003, N -0.273, P 0.099, T -0.315, K -0.178, Q 0.037, M -0.247, Y -0.624, G -0.034
E12: C -0.111, Q -0.049, P -0.87, F -0.282, S -0.114, G -0.228, A -0.07, N -0.074, I -0.438, T 0.041, D -0.109, V -0.396, Y -0.454, W -0.749, K -0.625, L -0.188, M 0.335, H -0.069
K17: N 0.228, A -0.08, T -0.59, M 0.114, W -0.056, Y -0.096, F 0.528, G -0.528, I -0.628, R 0.099, E 0.007, L -0.303, D -0.651, V -0.52, P -1.05
